The target of test [1] is T1, human alpha-synuclein (human, UniProt P37840 1-140). Kind of test: SPR Biacore 3000, IgG captured by anti-human IgG on CM5 chip. Background: SPR reads the build-up and loss of mass on a sensor chip optically.
Test [2] concerns the target T1, human alpha-synuclein. The description is as above. This is another data set of the same source.
Test [3] deals with T1, human alpha-synuclein. The experiment in a line: SPR Biacore 3000, synuclein ligand format.
The target in test [4] is T1, human alpha-synuclein. Kind of test: SPR BIAcore 3000, antibody captured by goat anti-human IgG on CM5 chip, human alpha-synuclein as analyte; calculated binding constants [continued) C].
The target of test [5] is T2, human beta-synuclein (human, UniProt Q16143 1-134).
T2 construct: Screening ligand; also called Beta Panel
T2 sequence (Q16143 whole entry): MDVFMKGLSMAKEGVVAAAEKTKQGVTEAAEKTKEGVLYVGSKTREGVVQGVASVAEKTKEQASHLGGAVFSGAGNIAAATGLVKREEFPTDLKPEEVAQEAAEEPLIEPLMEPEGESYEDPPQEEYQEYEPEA
The experiment in a line: Octet (ForteBio), antibody coupled to amine-reactive sensors, synuclein in solution [continued), Human beta-syn]. For orientation: BLI is a label-free optical method that tracks binding on a fibre tip over time.

The target in test [6] is T3, human gamma-synuclein (human, UniProt O76070 1-127).
T3 construct: Screening ligand; also called Gamma Panel
T3 sequence (O76070 whole entry): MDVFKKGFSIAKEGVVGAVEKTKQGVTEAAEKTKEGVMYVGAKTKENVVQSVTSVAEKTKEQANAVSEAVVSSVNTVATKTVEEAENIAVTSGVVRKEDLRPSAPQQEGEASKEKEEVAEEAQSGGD
Kind of test: Octet (ForteBio), antibody coupled to amine-reactive sensors, synuclein in solution [continued), Human gamma-syn].

Test [7] concerns the target T1, human alpha-synuclein. Kind of test: SPR BIAcore 3000, antibody captured by goat anti-human IgG on CM5 chip, human alpha-synuclein as analyte; calculated binding constants [continued) C]. This is another data set of the same source.
The target in test [8] is T1, human alpha-synuclein. The description is as above. The source holds these as a separate data set.
The target in test [9] is T3, human gamma-synuclein. The experiment in a line: Octet (ForteBio), antibody coupled to amine-reactive sensors, synuclein in solution [continued), Human gamma-syn]. This is another data set of the same source.
Source text: (§1) Amine reactive sensors (ForteBio, art. no. 18-0008) were used for immobilization of HuMabs. […] Activated sensors were immobilized with HuMabs during 600 seconds.
Test [10] deals with T1, human alpha-synuclein. The experiment in a line: SPR BIAcore T200, human alpha-synuclein immobilised, antibody as analyte, 1:1 binding fit.
Test [11] has as its target T2, human beta-synuclein. Kind of test: Octet (ForteBio), antibody coupled to amine-reactive sensors, synuclein in solution [Human beta-syn].
Source text: as §1

Several values for one entry are separate records, joined by “and”; a condition that tells them apart may be missing. Identical values can stand only once. Like-named read-outs stand apart in the source and are kept apart here.

B1: 2E6-HLD-1 (antibody, V domains shown)
VH: QVQLVQSGAEVKKPGASVKVSCKASGYTFTSYWMHWMRQAPGQGLEWIGRIDPNSGTTKYNVNFKTRATLTVDKSTSTAYMELSSLRSEDTAVYYCARLGHYGNLYAMDYWGQGTLVT
VL: EIVLTQSPATLSLSPGERATLSCSASSSVSYMHWYQQKPGQAPRRWIYDTSKLASGVPARFSGSGSGTDYTLTISSLEPEDFAVYYCQQWSSNPPTFGQGTKLEIKR
notes: Humanized 2E6 tested as IgG; also called Humanized HLD-1
The term Kd denotes the equilibrium constant for the complex coming apart. The term koff denotes the first-order rate constant of dissociation. The low end stands for slow dissociation, the high end for fast dissociation. The kon is the second-order rate constant of association. Read a high kon as faster complex formation. For the molecule B1, in [1], the KD improvement came out at 2.5 fold, the Ka amounted to 4.4e+07 M⁻¹, binding was characterised by a dissociation constant (Kd) of 22.7 nM and the koff is 0.000944 s⁻¹. In addition, the kon in test [1] came to 41600 M⁻¹ s⁻¹. Besides, in test [2], the KD improvement worked out at 2.5 fold, the Ka came to 4.4e+07 M⁻¹, binding was put at a Kd of 22.7 nM and the koff was found to be 0.000944 s⁻¹. The kon in test [2] turned out to be 41600 M⁻¹ s⁻¹. Besides, in test [3], the KD improvement stood at 2 fold, the Ka was found to be 5.81e+08 M⁻¹, the Kd came to 1.72 nM and the koff came to 0.000212 s⁻¹. This molecule also returned a kon in [3] of 123000 M⁻¹ s⁻¹.

B2: 9C12 (antibody, V domains shown)
VH: QVQLVQSGAEVKKPGASVKVSCKASGYTFTSYWMHWMRQAPGQGLEWIGRIDPNSGTTKYNVNIKTRATLTVDKSTSTAYMELSSLRSEDTAVYYCARLGHYGNLYAMDYWGQGTLVT
VL: EIVLTQSPATLSLSPGERATLSCSASSSVSYMHWYQQKPGQAPRRLIYDTSKLASGVPARFSGSGSGTDYTLTISSLEPEDFAVYYCQQWSSNPPTFGQGTKLEIK
In test [1], B2 yielded a KD improvement of 10 fold, a Ka of 1.78e+08 M⁻¹, a Kd of 5.62 nM and a koff of 0.000278 s⁻¹. In test [1], this molecule returned a kon of 49500 M⁻¹ s⁻¹.

B3: 2E6 HLD 3 (antibody, V domains shown)
VH: QVQLVQSGAEVKKPGASVKVSCKASGYTFTSYWMHWMRQAPGQGLEWIGRIDPNSGTTKYNVNFKTRVTLTVDKSTSTAYMELSSLRSEDTAVYYCARLGHYGNLYAMDYWGQGTLVT
VL: EIVLTQSPATLSLSPGERATLSCSASSSVSYMHWYQQKPGQAPRRWIYDTSKLASGVPARFSGSGSGTDYTLTISSLEPEDFAVYYCQQWSSNPPTFGQGTKLEIKR
Turning to B3, in [3], the KD improvement amounted to 1 fold, the Ka was 1.88e+08 M⁻¹, the koff was determined as 0.00026 s⁻¹ and the kon is 48900 M⁻¹ s⁻¹.

B4: 7C4 (antibody, V domains shown)
VH: QVQLVQSGAEVKKPGASVKVSCKASGYTFTRYWMHWMRQAPGQGPEWIGRIDPNSGTTKYNVNFKTRATLTVDKSTSTAYMELSSLRSEDTAVYYCARLGHYGNLYAMDYWGQGTLVT
VL: EIVLTQSPATLSLSPGERATLSCSASSSVSFMHWYQQKPGQAPRRWIYDTSKLASGVPARFSGSGSGTDYTLTISSLEPEDFAVYYCQQWSSNPPTFGQGTKLEIK
Consider B4, for which, in test [1], the KD improvement came out at 7 fold, the Ka was 1.23e+08 M⁻¹, binding was put at a Kd of 8.12 nM and the koff came out at 0.000997 s⁻¹. In addition, in [1], the kon came out at 123000 M⁻¹ s⁻¹.

B5: 2E6-HLD-2 (antibody, V domains shown)
VH: QVQLVQSGAEVKKPGASVKVSCKASGYTFTSYWMHWVRQAPGQGLEWIGRIDPNSGTTKYNVNFKTRATLTVDKSTSTAYMELSSLRSEDTAVYYCARLGHYGNLYAMDYWGQGTLVT
VL: EIVLTQSPATLSLSPGERATLSCSASSSVSYMHWYQQKPGQAPRRWIYDTSKLASGVPARFSGSGSGTDYTLTISSLEPEDFAVYYCQQWSSNPPTFGQGTKLEIKR
notes: Humanized 2E6
In [3], B5 displayed a KD improvement of 1 fold, a Ka of 2.04e+08 M⁻¹, a Kd of 4.91 nM and a koff of 0.000285 s⁻¹. Besides, the kon in test [3] was 58000 M⁻¹ s⁻¹.

B6: 8D9 (antibody, V domains shown)
VH: QVQLVQSGAEVKKPGASVKVSCKASGYTFTSYWMHWMRQAPGQGLEWIGRIDPNSGTTKYNVNFKTRATLTVDKSTSTAYMELSSLRSEDTAVYYCARLGHYGNLYAKDYWGQGTLVT
VL: EIVLTQSPATLSLSPGERATLSCSASSSVSYIHWYQQKPGQAPRRWIYDTSKLASGVPARFSGSGSGTDYTLTISSLEPEDFAVYYCQQWSSNPPTFGQGTKLEIK
As to B6, in test [1], the KD improvement was 8.7 fold, the Ka worked out at 1.53e+08 M⁻¹, the Kd came out at 6.52 nM and the koff amounted to 0.000483 s⁻¹. In addition, the kon in test [1] worked out at 74100 M⁻¹ s⁻¹.

B7: 9E4 (antibody, V domains shown)
VH: EVQLVESGGGLVQPGGSLRLSCAASGFTFSNYGMSWVRQAPGKGLEWVASISSGGGSTYYPDNVKGRFTISRDNAKNSLYLQMNSLRAEDTAVYYCARGGAGIDYWGQGTLVTVSS
VL: DIQMTQSPSSLSASVGDRVTITCKSIQTLLYSSNQKNYLAWFQQKPGKAPKLLIYWASIRKSGVPSRFSGSGSGTDFTLTISSLQPEDLATYYCQQYYSYPLTFGGGTKLEIKR
notes: Generated from the VH and VL of hybridoma PTA-8221; also called comparator antibody 9E4
In the case of B7, in test [4], the Ka was 2.58e+08 M⁻¹ and the Kd is 3.88 nM.

B8: GM285 (antibody, V domains shown)
VH: EVQLLESGGGLVQPGGSLRLSCAASGFTFSRFTMTWVRQAPGKGLEWVSAISGSGGGTSYADSVKGRLTVSRDNSKNTLYLQMNSLRAEDTAVYYCAKNWAPFDYWGQGTLVT
VL: not shown
notes: Human IgG1/kappa
For the molecule B8, the binding result in [5] is recorded as “no binding”. Moreover, the binding result in test [6] is listed as “no binding”. Moreover, in [7], the Ka was 2.33e+08 M⁻¹ and the Kd is 4.3 nM.

B9: GM37 (antibody, V domains shown)
VH: EVQLLESGGGLVQTGGSLRLSCAASGFTFSSYAMTWVRQAPGKGLEWVSAIRSNGDRTDYADSVKGRFTISRDNSQNTLYLQMNSLRAEDTAVYYCAKNWAPFDSWGQGTLVT
VL: not shown
notes: also called GM37wt; GM37 wt
In the case of B9, in test [8], the Ka was 2.33e+08 M⁻¹ and the Kd is 4.29 nM. Besides, the binding result in test [9] is on record as “no binding”. For the same molecule, in [10], the Kd was 27 nM and 28 nM; the koff was 0.0192 s⁻¹ and 0.0148 s⁻¹; the kon is 701000 M⁻¹ s⁻¹ and 528000 M⁻¹ s⁻¹. For the same molecule, the binding result in test [11] is on record as “no binding”.

B10: GM37 variant 3 (antibody, V domains shown)
VH: EVQLLESGGGLVQTGGSLRLSCAASGFTFSSYAMTWVRQAPGKGLEWVSAIRSHGDRTDYADSVKGRFTISRDNSQNTLYLQMNSLRAEDTAVYYCAKNWAPFDSWGQGTLVT
VL: not shown
In test [10], B10 registered a Kd of 40 nM, a koff of 0.0228 s⁻¹ and a kon of 577000 M⁻¹ s⁻¹.

B11: GM37 variant 1 (antibody, V domains shown)
VH: EVQLLESGGGLVQTGGSLRLSCAASGFTFSSYAMTWVRQAPGKGLEWVSAIRSSGDRTDYADSVKGRFTISRDNSQNTLYLQMNSLRAEDTAVYYCAKNWAPFDSWGQGTLVT
VL: not shown
As for B11, in test [10], the Kd came out at 22 nM, the koff came out at 0.0137 s⁻¹ and the kon was 634000 M⁻¹ s⁻¹.

B12: ch2E6 (antibody, V domains shown)
VH: QVQLQQPGAELVKPGASVKLSCTASGYTFTSYWMHWMKQRPGRGLEWIGRIDPNSGTTKYNVNFKTKATLTVDKPSSTAYMHLSSLTSEDSAVYYCARLGHYGNLYAMDYWGQGTSVT
VL: QIVLTQSPAIMSASPGEKVTMTCSASSSVSYMHWYQQKSGTSPKRWIYDTSKLASGVPTRFSGSGSGTSYSLTISSMDTEDAATYYCQQWSSNPPTFGAGTKLELK
notes: also called chimeric 2E6
In test [1], B12 had a KD improvement of 1 fold, a Ka of 1.76e+07 M⁻¹, a Kd of 56.7 nM and a koff of 0.00139 s⁻¹. The molecule further returned a kon in test [1] of 24500 M⁻¹ s⁻¹. Further, in test [2], the KD improvement was 1 fold, the Ka was found to be 1.76e+07 M⁻¹, the Kd amounted to 56.7 nM and the koff is 0.00139 s⁻¹. This molecule also showed a kon in [2] of 24500 M⁻¹ s⁻¹. In test [3], this molecule came in with a KD improvement of 1 fold, a Ka of 2.38e+08 M⁻¹, a Kd of 4.21 nM and a koff of 0.000265 s⁻¹. The molecule further registered an on-rate constant (kon) in test [3] of 62900 M⁻¹ s⁻¹.

(Values after patent US20180179273A1 (H LUNDBECK A S, published 2018).)
